This is an account of results in patent US20210277144A1 (SHANGHAI INSTITUTE OF BIOLOGICAL PRODUCTS, published 2021).

Like-named read-outs stand apart in the source and are kept apart here.

The target of assay [1] is T1, HER3 extracellular domain recombinant protein (human, UniProt P21860 20-643).
T1 construct: extracellular domain; also called HER3 extracellular domain protein; HER3 protein
Nature of the assay: SPR, ProteOn XPR36; antibody captured by goat anti-human antibody, HER3 extracellular domain 1.25-20 nM as analyte, Langmuir model. Here is the method:
(§1) And the channels were turned to horizontal position, and Channels 1-5 were injected with 20 nM, 10 nM, 5 nM, 2.5 nM, 1.25 nM of samples of HER3 extracellular domain protein respectively, and Channel 6 was injected with buffer. 5 kinetic response curves were obtained, respectively representing the results of the reaction between different concentrations of antigen and the captured antibody. The Langmuir model was used to calculate the affinity constants KD (M) of each chimeric antibody and humanized antibody mutant.

Assay [2] addresses T1, HER3 extracellular domain recombinant …. The description is as above. As to the method: as §1
This is another data set of the same source.

The target is the same in assay [3]. Briefly: SPR, ProteOn XPR36; compared with the chimeric antibody. Here is the method: as §1

T1 sequence (P21860 20-643): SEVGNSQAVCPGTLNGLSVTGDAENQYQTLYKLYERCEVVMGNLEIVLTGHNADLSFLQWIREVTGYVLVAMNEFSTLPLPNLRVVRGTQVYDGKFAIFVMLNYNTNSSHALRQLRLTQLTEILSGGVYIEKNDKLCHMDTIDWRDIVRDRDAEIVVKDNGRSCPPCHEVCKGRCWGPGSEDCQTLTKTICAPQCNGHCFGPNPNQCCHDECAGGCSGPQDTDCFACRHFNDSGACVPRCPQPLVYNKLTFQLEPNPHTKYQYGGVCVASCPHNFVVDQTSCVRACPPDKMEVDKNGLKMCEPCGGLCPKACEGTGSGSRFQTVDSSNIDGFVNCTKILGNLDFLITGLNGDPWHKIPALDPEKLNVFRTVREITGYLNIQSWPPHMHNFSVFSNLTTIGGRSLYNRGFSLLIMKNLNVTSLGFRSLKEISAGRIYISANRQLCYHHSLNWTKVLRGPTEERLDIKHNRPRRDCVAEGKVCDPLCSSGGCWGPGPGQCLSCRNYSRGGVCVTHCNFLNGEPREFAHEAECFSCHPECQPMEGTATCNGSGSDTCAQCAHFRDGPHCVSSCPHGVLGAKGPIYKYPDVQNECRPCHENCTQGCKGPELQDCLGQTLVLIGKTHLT

B1: 1044 human-mouse chimeric antibody (antibody, V domains shown)
VH: EVQLQQSGTELMKPGASVKISCKATGGTFSNYWIDWVKQRPGHGLEWIGEILPGSGGTDYNEKFKGKATFTADTSSNTAYMQLSSLTSEDSAVYYCARDDYDVFAYWGQGTLVTVSA
VL: DIVMTQAAFSNPVTLGTSASISCRSSKSLLHSNGITYLYWYLQKPGQSPQLLIYQMSNLASGVPDRFSSSGSGTDFTLRISRVEAEDVGVYYCAQNLELPWTFGGGTKLEIKR
Consider B1, for which, in assay [1], the equilibrium dissociation constant (Kd) was found to be 0.262 nM, the koff turned out to be 0.000229 s⁻¹ and the association rate constant (kon) worked out at 874000 M⁻¹ s⁻¹. In assay [2], the Kd came out at 0.278 nM, the koff was determined as 0.000293 s⁻¹ and the on-rate (kon) was 1.05e+06 M⁻¹ s⁻¹.

B2: humanized antibody h1044-0 (antibody, V domains shown)
VH: QVQLVQSGAEVKKPGSSVKVSCKASGGTFSNYWIDWVRQAPGQGLEWMGEILPGSGGTDYNEKFKGRVTITADTSTSTAYMELSSLRSEDTAVYYCARDDYDVFAYWGQGTLVTVSS
VL: DIVMTQSPGTLSLSPGERATLSCRSSKSLLHSNGITYLYWYQQKPGQAPRLLIYQMSNLASGIPDRFSGSGSGTDFTLTISRLEPEDFAVYYCAQNLELPWTFGQGTKVEIKR
notes: also called humanized h1044-0 antibody after CDR transplantation
For the molecule B2, the “fold lower affinity than the chimeric antibody” value in assay [3] was roughly 32 fold. Also, in assay [1], the equilibrium dissociation constant (Kd) amounted to 8.48 nM, the koff stood at 0.00427 s⁻¹ and the kon is 503000 M⁻¹ s⁻¹.

B3: humanized antibody hu1044-6 (VL63/69, VH68 back mutation) (antibody, human IgG1, V domains shown)
VH: QVQLVQSGAEVKKPGSSVKVSCKASGGTFSNYWIDWVRQAPGQGLEWMGEILPGSGGTDYNEKFKGRATITADTSTSTAYMELSSLRSEDTAVYYCARDDYDVFAYWGQGTLVTVSS
VL: DIVMTQSPGTLSLSPGERATLSCRSSKSLLHSNGITYLYWYQQKPGQAPRLLIYQMSNLASGVPDRFSSSGSGTDFTLTISRLEPEDFAVYYCAQNLELPWTFGQGTKVEIKR
Turning to B3, in assay [2], the Kd amounted to 0.42 nM, the koff is 0.00038 s⁻¹ and the on-rate constant (kon) is 904000 M⁻¹ s⁻¹.

B4: humanized antibody hu1044-7 (VL63/69, VH67/68 back mutation) (antibody, human IgG1, V domains shown)
VH: QVQLVQSGAEVKKPGSSVKVSCKASGGTFSNYWIDWVRQAPGQGLEWMGEILPGSGGTDYNEKFKGKATITADTSTSTAYMELSSLRSEDTAVYYCARDDYDVFAYWGQGTLVTVSS
VL: DIVMTQSPGTLSLSPGERATLSCRSSKSLLHSNGITYLYWYQQKPGQAPRLLIYQMSNLASGVPDRFSSSGSGTDFTLTISRLEPEDFAVYYCAQNLELPWTFGQGTKVEIKR
Consider B4, for which, in assay [2], the Kd stood at 0.375 nM, the off-rate (koff) was 0.000376 s⁻¹ and the on-rate (kon) was 1e+06 M⁻¹ s⁻¹.

B5: humanized antibody hu1044-1 (VL69 back mutation) (antibody, human IgG1, V domains shown)
VH: QVQLVQSGAEVKKPGSSVKVSCKASGGTFSNYWIDWVRQAPGQGLEWMGEILPGSGGTDYNEKFKGRVTITADTSTSTAYMELSSLRSEDTAVYYCARDDYDVFAYWGQGTLVTVSS
VL: DIVMTQSPGTLSLSPGERATLSCRSSKSLLHSNGITYLYWYQQKPGQAPRLLIYQMSNLASGIPDRFSSSGSGTDFTLTISRLEPEDFAVYYCAQNLELPWTFGQGTKVEIKR
notes: h1044-0 with Gly to Ser at VL69
Consider B5, for which, in assay [3], the “fold difference in affinity from the chimeric antibody” value is roughly 2 fold. In assay [2], the Kd is 0.595 nM, the koff was found to be 0.000502 s⁻¹ and the on-rate constant (kon) is 843000 M⁻¹ s⁻¹.

B6: humanized antibody hu1044-5 (VL63/69, VH38 back mutation) (antibody, human IgG1, V domains shown)
VH: QVQLVQSGAEVKKPGSSVKVSCKASGGTFSNYWIDWVKQAPGQGLEWMGEILPGSGGTDYNEKFKGRVTITADTSTSTAYMELSSLRSEDTAVYYCARDDYDVFAYWGQGTLVTVSS
VL: DIVMTQSPGTLSLSPGERATLSCRSSKSLLHSNGITYLYWYQQKPGQAPRLLIYQMSNLASGVPDRFSSSGSGTDFTLTISRLEPEDFAVYYCAQNLELPWTFGQGTKVEIKR
As for B6, in assay [2], the equilibrium dissociation constant (Kd) was found to be 0.419 nM, the dissociation rate constant (koff) was found to be 0.000353 s⁻¹ and the kon is 844000 M⁻¹ s⁻¹.

B7: humanized antibody with VH76 back mutation (antibody, V domains shown)
VH: QVQLVQSGAEVKKPGSSVKVSCKASGGTFSNYWIDWVRQAPGQGLEWMGEILPGSGGTDYNEKFKGRVTITADTSSSTAYMELSSLRSEDTAVYYCARDDYDVFAYWGQGTLVTVSS
VL: DIVMTQSPGTLSLSPGERATLSCRSSKSLLHSNGITYLYWYQQKPGQAPRLLIYQMSNLASGIPDRFSGSGSGTDFTLTISRLEPEDFAVYYCAQNLELPWTFGQGTKVEIKR
Turning to B7, in assay [1], the Kd is 6.49 nM, the koff came out at 0.00344 s⁻¹ and the on-rate (kon) turned out to be 531000 M⁻¹ s⁻¹.

B8: humanized antibody with VH77 back mutation (antibody, V domains shown)
VH: QVQLVQSGAEVKKPGSSVKVSCKASGGTFSNYWIDWVRQAPGQGLEWMGEILPGSGGTDYNEKFKGRVTITADTSTNTAYMELSSLRSEDTAVYYCARDDYDVFAYWGQGTLVTVSS
VL: DIVMTQSPGTLSLSPGERATLSCRSSKSLLHSNGITYLYWYQQKPGQAPRLLIYQMSNLASGIPDRFSGSGSGTDFTLTISRLEPEDFAVYYCAQNLELPWTFGQGTKVEIKR
As for B8, in assay [1], the equilibrium dissociation constant (Kd) was determined as 7.07 nM, the dissociation rate constant (koff) turned out to be 0.00327 s⁻¹ and the association rate constant (kon) was determined as 463000 M⁻¹ s⁻¹.

B9: humanized antibody hu1044 (VL69, VH38 back mutation) (antibody, V domains shown)
VH: QVQLVQSGAEVKKPGSSVKVSCKASGGTFSNYWIDWVKQAPGQGLEWMGEILPGSGGTDYNEKFKGRVTITADTSTSTAYMELSSLRSEDTAVYYCARDDYDVFAYWGQGTLVTVSS
VL: DIVMTQSPGTLSLSPGERATLSCRSSKSLLHSNGITYLYWYQQKPGQAPRLLIYQMSNLASGIPDRFSSSGSGTDFTLTISRLEPEDFAVYYCAQNLELPWTFGQGTKVEIKR
notes: also called final humanized antibody hu1044
B9: the “fold of the affinity constant of the chimeric antibody” value (“fold … of the chimeric antibody” for short) in assay [3] was no more than 2 fold. In assay [2], the dissociation constant (Kd) is 0.442 nM, the off-rate (koff) was 0.000386 s⁻¹ and the on-rate (kon) amounted to 875000 M⁻¹ s⁻¹.

B10: humanized antibody hu1044-4 (VL69, VH68 back mutation) (antibody, human IgG1, V domains shown)
VH: QVQLVQSGAEVKKPGSSVKVSCKASGGTFSNYWIDWVRQAPGQGLEWMGEILPGSGGTDYNEKFKGRATITADTSTSTAYMELSSLRSEDTAVYYCARDDYDVFAYWGQGTLVTVSS
VL: DIVMTQSPGTLSLSPGERATLSCRSSKSLLHSNGITYLYWYQQKPGQAPRLLIYQMSNLASGIPDRFSSSGSGTDFTLTISRLEPEDFAVYYCAQNLELPWTFGQGTKVEIKR
In the case of B10, the “fold … of the chimeric antibody” value in assay [3] is no more than 2 fold. In assay [2], the dissociation constant Kd worked out at 0.461 nM, the off-rate (koff) came to 0.000388 s⁻¹ and the association rate constant (kon) amounted to 841000 M⁻¹ s⁻¹.

B11: humanized antibody with VH1 back mutation (antibody, V domains shown)
VH: EVQLVQSGAEVKKPGSSVKVSCKASGGTFSNYWIDWVRQAPGQGLEWMGEILPGSGGTDYNEKFKGRVTITADTSTSTAYMELSSLRSEDTAVYYCARDDYDVFAYWGQGTLVTVSS
VL: DIVMTQSPGTLSLSPGERATLSCRSSKSLLHSNGITYLYWYQQKPGQAPRLLIYQMSNLASGIPDRFSGSGSGTDFTLTISRLEPEDFAVYYCAQNLELPWTFGQGTKVEIKR
For B11, in assay [1], the dissociation constant (Kd) was 9.14 nM, the dissociation rate constant (koff) was determined as 0.00382 s⁻¹ and the kon was 418000 M⁻¹ s⁻¹.

B12: humanized antibody with VH25 back mutation (antibody, V domains shown)
VH: QVQLVQSGAEVKKPGSSVKVSCKATGGTFSNYWIDWVRQAPGQGLEWMGEILPGSGGTDYNEKFKGRVTITADTSTSTAYMELSSLRSEDTAVYYCARDDYDVFAYWGQGTLVTVSS
VL: DIVMTQSPGTLSLSPGERATLSCRSSKSLLHSNGITYLYWYQQKPGQAPRLLIYQMSNLASGIPDRFSGSGSGTDFTLTISRLEPEDFAVYYCAQNLELPWTFGQGTKVEIKR
Turning to B12, in assay [1], the Kd is 6.02 nM, the dissociation rate constant (koff) was found to be 0.00317 s⁻¹ and the kon stood at 525000 M⁻¹ s⁻¹.

B13: humanized antibody hu1044-3 (VL69, VH48 back mutation) (antibody, human IgG1, V domains shown)
VH: QVQLVQSGAEVKKPGSSVKVSCKASGGTFSNYWIDWVRQAPGQGLEWIGEILPGSGGTDYNEKFKGRVTITADTSTSTAYMELSSLRSEDTAVYYCARDDYDVFAYWGQGTLVTVSS
VL: DIVMTQSPGTLSLSPGERATLSCRSSKSLLHSNGITYLYWYQQKPGQAPRLLIYQMSNLASGIPDRFSSSGSGTDFTLTISRLEPEDFAVYYCAQNLELPWTFGQGTKVEIKR
Regarding B13, in assay [3], the “fold … of the chimeric antibody” value is no more than 2 fold. Moreover, in assay [2], the Kd came out at 0.554 nM, the off-rate (koff) is 0.000494 s⁻¹ and the kon is 882000 M⁻¹ s⁻¹.
